Measurements: patent US20250145694A1 (GUANGDONG FEIPENG BIOLOGICAL, published 2025)
Residue numbers refer to the chain shown, from its start.

B1: Mutation 2 (antibody)
heavy: EVQMVESGGGLLKPGGSLKLSCAASGFTYSNYAMSWVRQTPEKRLEWVATISTGGSYSYYPDSVKGRFTISRDNAKNTLYLQMLSLRSEDTAMYYCARRDNYYGSTFMDYWGQGSSVTVSSAKTTPPSVYPLAPGSAAQTNSMVTLGCLVKGYFPEPVTVTWNSGSLSSGVHTFPAVLQSDLYTLSSSVTVPSSTWPSQTVTCNVAHPASSTKVDKKIVPRDCGCKPCICTVPEVSSVFIFPPKPKDVLTITLTPKVTCVVVDISKDDPEVQFSWFVDDVEVHTAQTKPREEQFNSTFRSVSELPIMHQDWLNGKEFKCRVNSAAFPAPIEKTISKTKGRPKAPQVYTIPPPKEQMAKDKVSLTCMITNFFPEDITVEWQWNGQPAENYKNTQPIMDTDGSYFVYSKLNVQKSNWEAGNTFTCSVLHEGLHNHHTEKSLSHSPG
light: DIQMTQTSSSLSASLGDRVTISCRASQDITQYLNWYQQKPDGTIKLLIYYTSRIHSGVSSRFSGSGSGTDYSLTISNLEQEDIATYFCQQGNTIPLTFDTGTKLELKRADAAPTVSIFPPSSEQLTSGGASVVCFLNNFYPKDINVKWKIDGSERQNGVLNSWTDQDSKDSTYSMSSTLTLTKDEYERHNSYTCEATHKTSTSPIVKSFNRNEC
notes: assembled FR/CDR/constant
B2: Mutation 4 (antibody)
heavy: B1 heavy with T53S, R99K
light: B1 light with T51S
notes: light chain unchanged from WT; heavy chain assembled FR/CDR/constant
B3: Mutation 3 (antibody)
heavy: B1 heavy with T53S, R99K
light: B1 light with Q31N, T51S
notes: assembled FR/CDR/constant
B4: WT 1-1 (antibody, V domains shown)
VH: QVQLQQSGTELAKPGASVKFSCKASDYTFSTYWMYWIKQRPGQGLEWIGYINPSTGHTEYNQKFKDKATLTADKSSSTAYMQLNSLTSEDSAVYYCARRYYGPFAMDYWGQGTSVTVSS
VL: EIFLTQSPAIMSASPGEKVTMTCSASSSVSYAHWYQQKSGTSPKRWIYDSSKIASGIPVRFSGSGSGTSYSLTISSMEAEDAATYYCQNWSTNPYTFGGGTKLEIKR
B5: WT 1-5 (antibody, V domains shown)
VH: B4 VH with T31S, I51L, R99K, Y101W
VL: B4 VL
B6: Mutation 1-32 (antibody)
heavy: B1 heavy with T53S, T106S
light: B1 light with Q31N
notes: assembled FR/CDR/constant
B7: Mutation 1-38 (antibody)
heavy: B1 heavy with T53S, Y59F, Y103P
light: B1 light with Q31N, I54L
notes: assembled FR/CDR/constant
B8: Mutation 1-39 (antibody)
heavy: B1 heavy with Y29F, T53S, Y103P, T106S
light: B1 light with Q31N, N92H
notes: assembled FR/CDR/constant
B9: Mutation 1-41 (antibody)
heavy: B1 heavy with Y29F, T53S, Y59F, Y103F, T106S
light: B1 light with D28E, Q31N, I54L, I94L
notes: assembled FR/CDR/constant
B10: Mutation 1-36 (antibody)
heavy: B1 heavy with T53S
light: B1 light with D28E, Q31N, I94L
notes: assembled FR/CDR/constant
B11: Mutation 1-48 (antibody)
heavy: B1 heavy with T53S, Y103P
light: B1 light with D28E, Q31N
notes: assembled FR/CDR/constant
B12: Mutation 1-43 (antibody)
heavy: B1 heavy with Y29F, T53S, Y103P
light: B1 light with Q31N, I54L
notes: assembled FR/CDR/constant
B13: Mutation 1-34 (antibody)
heavy: B1 heavy with T53S, Y59F, Y103P, T106S
light: B1 light with Q31N
notes: assembled FR/CDR/constant
B14: Mutation 1-40 (antibody)
heavy: B1 heavy with T53S, Y103F
light: B1 light with D28E, Q31N, I94L
notes: assembled FR/CDR/constant; Same printed sites as Mutation 1-4
B15: Mutation 1-47 (antibody)
heavy: B1 heavy with Y29F, T53S, Y103P, T106S
light: B1 light with Q31N, I94L
notes: assembled FR/CDR/constant
B16: Mutation 1-35 (antibody)
heavy: B1 heavy with Y29F, T53S, Y103F
light: B1 light with Q31N, I54L, N92H, I94L
notes: assembled FR/CDR/constant
B17: Mutation 1-33 (antibody)
heavy: B1 heavy with Y29F, T53S, Y59F, Y103P
light: B1 light with Q31N, I54L, N92H
notes: assembled FR/CDR/constant
B18: Mutation 1-44 (antibody)
heavy: B1 heavy with T53S, Y103P, T106S
light: B1 light with Q31N, I54L, N92H, I94L
notes: assembled FR/CDR/constant
B19: Mutation 1-46 (antibody)
heavy: B1 heavy with T53S, Y59F
light: B1 light with D28E, Q31N, I54L, N92H, I94L
notes: assembled FR/CDR/constant
B20: Mutation 1-42 (antibody)
heavy: B1 heavy with T53S, Y59F, T106S
light: B1 light with D28E, Q31N, N92H
notes: assembled FR/CDR/constant
B21: Mutation 1-37 (antibody)
heavy: B1 heavy with Y29F, T53S, Y59F, T106S
light: B1 light with Q31N, I54L, N92H, I94L
notes: assembled FR/CDR/constant
B22: Mutation 1-45 (antibody)
heavy: B1 heavy with Y29F, T53S, Y59F, Y103F
light: B1 light with D28E, Q31N
notes: assembled FR/CDR/constant

What follows are binders tested against T1, CTNI quality control recombinant antigen (human, UniProt P19429 1-210, limits assumed) (assay: indirect ELISA, cTnI coated 1 ug/ml, antibody 0.051 ng/ml).
T1 construct: Recombinant antigen produced by the applicant; also called CTNI quality control recombinant protein (antigen produced by the company); cardiac troponin I
T1 sequence (P19429 whole entry): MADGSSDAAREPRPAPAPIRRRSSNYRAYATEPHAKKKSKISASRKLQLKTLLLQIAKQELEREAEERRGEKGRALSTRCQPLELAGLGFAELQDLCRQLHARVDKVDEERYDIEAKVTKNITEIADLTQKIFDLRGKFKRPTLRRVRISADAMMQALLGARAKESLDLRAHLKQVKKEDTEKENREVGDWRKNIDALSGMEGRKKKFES
Protocol: (§1) CTNI quality control recombinant antigen was diluted to 1 μg/ml with a coating solution and coated a microplate, 100 μL per well, overnight at 4° C.; on the next day, the microplate was washed with a washing solution twice and patted dry; a blocking solution (20% of BSA+80% of PBS) was added, 120 μL per well, 37° C., 1 h, patted dry; the diluted cTnI monoclonal antibodies were added, 100 μL/well, 37° C., 30 min; the microplate was washed with a washing solution 5 times, patted dry; goat anti-mouse IgG-HRP, 100 μL per well, 37° C., 30 min; the microplate was washed with a washing solution 5 times, patted dry; a color-developing solution A (50 μL/well) was added, a color-developing solution B (50 μL/well) was added, 10 min; a stop solution was added, 50 μL/well; OD values were read on microplate reader at 450 nm (reference, 630 nm).

OD450 (reference 630 nm)	Binder
0.058 OD	B1
0.061 OD	B2
0.049 OD	B3

These binders were tested against T1, CTNI quality control recombinant antigen (assay: indirect ELISA, cTnI coated 1 ug/ml, antibody 0 ng/ml (blank)).
Protocol: as §1

OD450 (reference 630 nm)	Binder
0 OD	B1
0.029 OD	B2
0.011 OD	B3

What follows are binders tested against T1, CTNI quality control recombinant antigen (assay: indirect ELISA, cTnI coated 1 ug/ml, antibody 0.457 ng/ml).
Protocol: as §1

OD450 (reference 630 nm)	Binder
0.248 OD	B1
0.098 OD	B2
0.172 OD	B3

Each binder was assayed against T1, CTNI quality control recombinant antigen (assay: indirect ELISA, cTnI coated 1 ug/ml, antibody 0.152 ng/ml).
Protocol: as §1

OD450 (reference 630 nm)	Binder
0.072 OD	B1
0.069 OD	B2
0.068 OD	B3

Each binder was assayed against T1, CTNI quality control recombinant antigen (assay: indirect ELISA, cTnI coated 1 ug/ml, antibody 4.115 ng/ml).
Protocol: as §1

OD450 (reference 630 nm)	Binder
1.44 OD	B1
0.456 OD	B2
1.04 OD	B3

These binders were tested against T1, CTNI quality control recombinant antigen (assay: indirect ELISA, cTnI coated 1 ug/ml, antibody 12.346 ng/ml).
Protocol: as §1

OD450 (reference 630 nm)	Binder
1.95 OD	B1
1.21 OD	B2
1.78 OD	B3

What follows are binders tested against T1, CTNI quality control recombinant antigen (assay: BLI, antibody on AMC sensor, cTnI in solution).
Protocol: With an AMC sensor, the purified antibody was diluted to 10 μg/ml with PBST, and CTNI quality control recombinant protein (antigen produced by the company) was gradient diluted with PBST to 769.2 nmol/ml, 384.6 nmol/ml, 192.3 nmol/ml, 96.2 nmol/ml, 48.1 nmol/ml, 24 nmol/ml, 12 nmol/ml, and 0 nmol/ml.

Kd	koff	kon	Binder
33.3 nM	0.000128 s⁻¹	3840 M⁻¹ s⁻¹	B4
8.35 nM	0.000743 s⁻¹	89000 M⁻¹ s⁻¹	B5
8.38 nM	0.000266 s⁻¹	31700 M⁻¹ s⁻¹	B6
7.74 nM	0.00057 s⁻¹	73700 M⁻¹ s⁻¹	B7
6.25 nM	0.000509 s⁻¹	81400 M⁻¹ s⁻¹	B8
9.24 nM	0.000774 s⁻¹	83800 M⁻¹ s⁻¹	B9
9.27 nM	0.000774 s⁻¹	83500 M⁻¹ s⁻¹	B10
7.04 nM	0.000583 s⁻¹	82800 M⁻¹ s⁻¹	B11
5.37 nM	0.000248 s⁻¹	46100 M⁻¹ s⁻¹	B12
8.44 nM	0.000255 s⁻¹	30200 M⁻¹ s⁻¹	B13
3.12 nM	0.000262 s⁻¹	83900 M⁻¹ s⁻¹	B14
2.87 nM	9.47e-05 s⁻¹	33000 M⁻¹ s⁻¹	B15
5.25 nM	0.000161 s⁻¹	30700 M⁻¹ s⁻¹	B16
0.979 nM	0.000521 s⁻¹	532000 M⁻¹ s⁻¹	B17
3.53 nM	0.000171 s⁻¹	48500 M⁻¹ s⁻¹	B18
4.93 nM	0.000274 s⁻¹	55600 M⁻¹ s⁻¹	B19
3.09 nM	0.000109 s⁻¹	35200 M⁻¹ s⁻¹	B20
4.2 nM	0.000299 s⁻¹	71000 M⁻¹ s⁻¹	B21
9.02 nM	0.00019 s⁻¹	21100 M⁻¹ s⁻¹	B22

What follows are binders tested against T1, CTNI quality control recombinant antigen (assay: indirect ELISA, cTnI coated 1 ug/ml, antibody 1.372 ng/ml).
Protocol: as §1

OD450 (reference 630 nm)	Binder
0.728 OD	B1
0.208 OD	B2
0.479 OD	B3
